Test results from patent US20110287023A1 (AstraZeneca / MedImmune, published 2011).

T1: HMG1 B Box peptide amino acids 150-183
T1 peptide: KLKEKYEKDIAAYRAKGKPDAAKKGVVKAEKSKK

T2: HMG1 purified from calf (bovine) thymus (bovine, UniProt P10103 2-215)
T2 construct: also called Calf thymus HMGB1; thymus HMG1
T2 sequence (looked up): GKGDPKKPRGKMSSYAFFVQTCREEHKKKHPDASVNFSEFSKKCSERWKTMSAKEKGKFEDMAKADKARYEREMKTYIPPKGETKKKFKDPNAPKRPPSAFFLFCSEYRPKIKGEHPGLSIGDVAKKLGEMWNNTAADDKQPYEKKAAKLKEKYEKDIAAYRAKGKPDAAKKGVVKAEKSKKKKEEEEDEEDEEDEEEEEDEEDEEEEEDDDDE

T3: HMG2 coated on ELISA plates (Bos taurus (Bovine), UniProt P40673 2-209)
T3 construct: also called HMGB2; HMBG2
T3 sequence: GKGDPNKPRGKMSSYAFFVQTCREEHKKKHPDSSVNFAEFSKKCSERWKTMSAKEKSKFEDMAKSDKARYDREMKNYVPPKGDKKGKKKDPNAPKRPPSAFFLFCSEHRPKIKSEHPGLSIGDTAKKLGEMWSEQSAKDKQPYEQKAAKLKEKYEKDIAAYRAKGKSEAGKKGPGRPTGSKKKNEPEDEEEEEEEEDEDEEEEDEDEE


Assays:
[1] = biological target: T4, recombinant HMG1 produced in E. coli as a calmodulin binding protein (CBP) fusion (human); assay: cell-based or functional assay
T4 sequence (P09429 whole entry, the tested form may be a part): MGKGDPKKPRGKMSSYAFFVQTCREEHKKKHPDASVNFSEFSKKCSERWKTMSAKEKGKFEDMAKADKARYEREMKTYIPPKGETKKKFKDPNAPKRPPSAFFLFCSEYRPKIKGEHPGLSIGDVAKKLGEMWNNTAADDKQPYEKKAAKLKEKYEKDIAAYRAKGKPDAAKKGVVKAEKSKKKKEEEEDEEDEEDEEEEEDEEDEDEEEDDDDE

[2] = biological target: T1, HMG1 B Box peptide amino acids 150-183; assay: ELISA, HMG1 B Box peptide 150-183 coated at 10 ug/ml, antibody titrated, OD 450
In short: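 Plates blocked with 4% milk/PBS, or biotinylated peptides captured on avidin wells after 1% BSA blocking (30 min RT). Human anti-HMG1 antibodies titrated or serially diluted from 10 μg/ml, detected with anti-human IgG-HRP and TMB substrate, absorbance at 450 nm.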

[3] = biological target: T4, recombinant HMG1 produced in E. coli as …; assay: BIAcore 3000, mAb amine-coupled to CM5, HMG1 injected, steady-state model
In short: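 Each mAb amine-coupled to a CM5 chip alongside a reference flow cell; two-fold serial dilutions of E. coli-expressed CBP-fusion HMG1 injected at slow flow. Surfaces regenerated with 1M NaCl-50 mM NaOH. Affinity derived from binding curves by a steady-state model.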

[4] = biological target: T2, HMG1 purified from calf (bovine) thymus; assay: direct ELISA, calf thymus HMGB1 coated at 5 ug/mL, antibody at 10 ug/mL, anti-human kappa/lambda-HRP, OD 490
In short: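 Calf thymus HMGB1 or HMGB2 coated at 5 ug/mL in 10 mM PBS pH 7.2 overnight at 4 °C; anti-HMGB1 antibody added at 10 ug/mL final in PBS + 1% BSA, 1 h at room temperature. Detection with HRP anti-human kappa plus lambda (1:1000, 1 h), OPD substrate 20-30 min in the dark, H₂SO₄ stop, absorbance 490 nm.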

[5] = biological target: T4, recombinant HMG1 produced in E. coli as …; assay: ELISA, coated RAGE-Fc, rHMG1 preincubated with antibody
Experimental: HMG1 binding to RAGE-Ig by ELISA: 50 μl/well of RAGE-Fc fusion protein at 5 μg/ml in PBS was added to each well of an ELISA plate and incubated overnight at 4° C. The plate was then blocked with 200 μl of 5% milk at 37° C. for 1 hr and washed 3× with PBS/Tween. 50 μl/well of diluted HMGB1 solution. For dose curves, HMGB1 concentrations started at 4 ug/ml in PBS. For antibody blocking the HMGB1 was preincubated in another plate with human anti-HMG1 antibodies or buffer, then transferred to the RAGE-coated plate. The plates were then incubated at room temperature for 2 hours and washed 3×. To detect any HMG1 bound to the immobilized RAGE-Fc a mixture of biotinylated mouse anti-HMG1 mAbs (10D4, 4H11, 3E10 and 5C12) each at 1 ug/ml, total Ab: 4 ug/ml, were added to each well and the plate was incubated for 1 hour at room temperature. The plate was then washed and Strepavidin-HPR was added to each well and incubated 15 min. The plate was then washed 3× and blotted dry. 100 μl of TMB developing agent was added and the plate read at 650 nm. Values were calculated as percent of inhibition with HMG1 alone equal to 0% inhibition. The data in FIG. 9 and summarized in Table 1 represent the average of two separate experiments.

[6] = biological target: T3, HMG2 coated on ELISA plates; assay: direct ELISA, HMGB2 coated at 5 ug/mL, OD 490
Experimental: Binding to HMG1 vs. HMG2: Ultra high-binding ELISA plates (ThermoLab systems, #3855) were coated with either 5 ug/mL of Calf thymus HMGB1 or HMBG2 diluted in 10 mM Phosphate buffered saline (PBS), pH 7.2 and incubate overnight at 4 degrees. The plates were washed twice with Ca and Mg free PBS and 100 microliters of anti-HMGB1 antibody diluted in 10 mM PBS, pH 7.2+1% bovine serum albumin (BSA) to a final concentration of 10 ug/mL was added to each well and the plates were incubated 1 hour at room temperature. The wells were washed three times with 100 μl of PBS, pH 7.2. HRP labeled goat-anti-human IgG Kappa-chain (KPL, #14-10-10) and goat-anti-human IgG Lambda-chain (KPL, #14-10-11) were diluted in 10 mM PBS+1% BSA 1:1000 and 100 μl were added to each well and incubated for 1 hour at room temperature. The wells were then washed three times with 100 μl of PBS, pH 7.2. OPD substrate (Pierce chemical company, #34006) was prepared following the manufacturers instructions and 100 μl of prepared substrate was added to each well and the plates incubated at room temperature in the dark for 20-30 minutes. The reaction was stopped with the addition of 100 μl of 2M H₂SO₄, and the plates read on a plate reader at a wavelength of 490 nm.

Row | Binder | IC50 IL-6 [1] [nM] | IC50 NO [1] [µg/mL] | binding result [2] | Kd [3] [nM] | binding result [4] | IC50 IL-1β [1] [µg/mL] | IC50 IL-12 [1] [µg/mL] | IC50 TNF-α [1] [µg/mL] | percent inhibition of HMG1 binding to RAGE [5] [%] | binding result [6]
1 | human anti-HMG1 antibody E11 (antibody, IgG1, V domains shown, full length IgG1 made from a human Fab phage clone) VH: EVQLLESGGGLVQPGGSLRLSCAASGFTFSRYQMNWVRQAPGKGLEWVSSISPSGGHTHYADSVKGRFTISRDNSKNTLYLQMNSLRAEDTAVYYCAKDGRQGKISTVDHWGQGTLVTVSS VL: DIQMTQSPGTLSLSPGERATLSCRASQSVRSNFLAWYQQKPGQAPRLLIYGASRRASGIPDRFSGSGFGADFTLSISRLEPEDFAVYYCQQYGSSPNTFGQGSRVEIK | 1.22 | 101 | no binding (tested: 10 ug/ml (log 1.0)) |  |  |  |  |  |  | 
2 | human anti-HMG1 antibody S16 (antibody, IgG1, V domains shown, full length IgG1 made from a human Fab phage clone; also called ATCC PTA-6259) VH: EVQLLESGGGLVQPGGSLRLSCAASGFTFSWYSMLWVRQAPGKGLEWVSYISPSGGFTNYADSVKGRFTISRDNSKNTLYLQMNSLRAEDTAVYYCARWDYNSGWYYDHWGQGTLVTVSS VL: DIQMTQSPDTLSLSPGERATLSCRASQSVNSRNLAWYQQKPGQAPRLLIYGASTRATGIPDRFSGSVSGTEFTLTISSLQPDDFATYYCQQYNSYFTFGQGTKLEIK | 0.56 |  |  | 23 | binds | 6.05 | 1.24 | 1.44 | ≥ 35 | 
3 | human anti-HMG1 antibody G4 (antibody, IgG1, V domains shown, full length IgG1 made from a human Fab phage clone; also called ATCC PTA-6258) VH: EVQLLESGGGLVQPGGSLRLSCAASGFTFSWYDMTWVRQAPGKGLEWVSSISPSGGYTKYADSVKGRFTISRDNSKNTLYLQMNSLRAEDTAVYYCTTEFYDYLDVWGKGTTVTVSS VL: DIQMTQSPGTLSLSPGEGATLSCRASQSVSSTYLAWYQQKPGQAPRLLIYEASKRATGTPARFSGSGSGTDFTLSISSLEPEDFAVYYCQHRHNWPPQWTFGQGTKVEVK | 0.9 |  | no binding (tested: 10 ug/ml (log 1.0)) | 30 | binds | 5.01 | 0.715 | 5.51 |  | no binding (tested: 10 ug/mL (single concentration))
4 | human anti-HMG1 antibody S6 (antibody, V domains shown, full length IgG1 made from a human Fab phage clone; two paragraphs print 'S4' for the PTA-6143 deposit; also called ATCC PTA-6143) VH: EVQLLESGGGLVQPGGSLRLSCAASGFTFSWYDMSWVRQAPGKGLEWVSRISPSGGYTMYADSVKGRFTISRDNSKNTLYLQMNSLRAEDTAVYYCARLEVGATSGGTAFDIWGQGTMVTVSS VL: not shown | 0.174 | 4.15 | no binding (tested: 10 ug/ml (log 1.0)) | 39 | binds | 0.0232 |  | 0.0182 | ≥ 35 | no binding (tested: 10 ug/mL (single concentration))
